Results on one substance are retold here after paper PMC6743362.

The target in this test is microtubules (MT fraction from mouse brain) (mouse (endogenous in mouse brain)) (UniProt P68369). Kind of test: co-sedimentation.

“recombinant human tau lacking the MT-binding domain (tau ΔMTBD) (from UniProt P10636-6 1-383) (natural protein)” had an MT-bound fraction of 0.619 and an MT-unbound fraction of 0.381.
